Test results taken from patent US20030232087A1, “Bioactive agent release coating with aromatic poly(meth)acrylates” (priority 2002, published 2003).

Experiments:
[1] = Bioactive Agent Release Assay, dextran-TRITC from coated discs with polymer topcoat; type: physicochemical; details: pEVA (33% vinyl acetate)/pBMA topcoat coated at 48% relative humidity compared with 10% relative humidity; PBS, 37° C.; FIG. 2
Procedure: Two solutions were prepared in order to provide a coating composition of Applicant's copending application in the form of a two part system. The first solution was an aqueous solution containing the bioactive agent, dextran-TRITC, at a concentration of 15 mg/ml. The second solution contained poly(ethylene-co-vinylacetate) with a vinyl acetate concentration of 33% (w/w) and poly(n-butyl methacrylate), with approximate weight average molecular weight of 337 kilodaltons. The poly(n-butyl methacrylate) and poly(ethylene-co-vinylacetate) were purified by extraction with organic solvents to remove impurities, e.g., monomer residues. The polymers of the second solution were dissolved in tetrahydrofuran at a concentration of 10 mg/ml. […]
(§1) A suitable Bioactive Agent Release Assay, as describe herein, can be used to determine the extent and rate of bioactive agent release under physiological conditions. In general it is desirable that less than 50% of the total quantity of the bioactive agent be released in the first 24 hours. It is frequently desirable for quantities of bioactive agent to be released for a duration of at least 30 days.
Except as otherwise provided herein, each coated disc was placed in an amber vial with 4 mls of PBS. […] The concentration of bioactive agent in each PBS sample was determined using UV spectroscopy. […]

[2] = Bioactive Agent Release Assay, β-estradiol from coated stents; type: physicochemical; details: pEVA/pBMA 14/86% (w/w), coated at 0, 20, 30 or 40% relative humidity at 22° C.; PBS, 37° C.; FIG. 3
Procedure: A polymer coating solution containing poly(ethylene-co-vinylacetate) with a vinyl acetate concentration of 33% (w/w) and poly(n-butyl methacrylate) was prepared in 5 tetrahydrofuran at a polymer ratio of 14/86% (w/w), respectively. β-estradiol was added to the polymer coating solution after dissolution of the polymer in order to provide a coating composition of Applicant's above-captioned copending application in the form a one part system The bioactive agent/polymer ratio of the β-estradiol containing polymer solution was 30/70% (w/w) at a concentration of 10 mg/ml.
Eighteen-millimeter long, electropolished stainless steel stents with a 2 mm outer diameter were fabricated (Laserage Technology Corporation, Waukegan Ill.). […]
as §1, with “described” for “describe”, “that” for “than”
Except as otherwise provided herein, each coated stent was placed in an amber vial with 1.6 mls of PBS. […] The concentration of β-estradiol in each PBS sample was determined using UV spectroscopy.

tetramethylrhodamine isothiocyanate-Dextran [dextran-TRITC]
release rate of bioactive agent from composite coating [1]: faster rate

C[C@]12CC[C@@H]3c4ccc(O)cc4CC[C@H]3[C@@H]1CC[C@@H]2O [β-estradiol]
β-estradiol rate of release from coating [2]: different humidity level conditions can be used to control the β-estradiol rate of release
